Results on eleven molecules are retold here after patent publication US20180258161A1 (Chugai, published 2018).

Residue numbers refer to the chain shown, from its start. Bounds are passed on as bounds.

The target in experiment [1] is T1, recombinant human IgA (human).
T1 construct: Antigen; H(WT)-IgA1 with L(WT); The text calls human IgA a dimeric antigen; also called hIgA
The experiment can be described thus: Biacore T200, pH 7.4, 1.2 mM Ca, 1:1 binding model. The method, then:
(§1) Using Biacore T200 (GE Healthcare), the obtained antibodies were assessed for their binding activity to human IgA (dissociation constant KD (M)). The measurement was carried out using as a running buffer 0.05% tween20, 20 mmol/1 ACES, 150 mmol/l NaCl (pH 7.4 or pH 5.8) containing 3 μM or 1.2 mM CaCl₂, or 0.05% tween20, 20 mmol/1 ACES, 150 mmol/l NaCl (pH 8.0) containing 0.1 μM or 10 mM CaCl₂.
(§2) After an adequate amount of recombinant Protein A/G (Thermo Scientific) was immobilized onto the Sensor chip CM5 (GE Healthcare) by an amino coupling method, antibodies were allowed to bind onto the sensor chip. An appropriate concentration of hIgA (described in (20-1)) was injected as an analyte to interact with antibodies on the sensor chip. Then, the sensor chip was regenerated by injecting 10 mmol/l glycine-HCl, pH 1.5. The measurement was carried out at 37° C. From the assay result, the dissociation constant KD (M) was calculated based on curve-fitting analysis and equilibrium constant analysis using Biacore T200 Evaluation Software (GE Healthcare).

Experiment [2] has as its target T1, recombinant human IgA. The experiment in a line: Biacore T200, pH 5.8, 1.2 mM Ca, 1:1 binding model. The method, then: as §1, §2
(In SPR one partner is held on a chip, and binding of the other changes the refractive index at the surface.)

The target of experiment [3] is T1, recombinant human IgA. The experiment in a line: Biacore T200, pH 7.4, 3 µM Ca, 1:1 binding model. Here is the method:
as §1, §2

Experiment [4] addresses T1, recombinant human IgA. The experiment in a line: Biacore T200, pH 5.8, 3 µM Ca, 1:1 binding model. Here is the method: as §1, §2
The target of experiment [5] is T1, recombinant human IgA. The experiment in a line: Biacore T200, pH 8.0, 0.1 µM Ca, 1:1 binding model. The method, then:
as §1, §2

Experiment [6] addresses T1, recombinant human IgA. The experiment can be described thus: Biacore T200, pH 8.0, 10 mM Ca, 1:1 binding model. Here is the method:
as §1, §2

The target in experiment [7] is T1, recombinant human IgA. The experiment in a line: Biacore T200, pH 5.8, 1.2 mM Ca, steady state affinity. Here is the method:
as §1, §2

Experiment [8] has as its target T1, recombinant human IgA. The experiment in a line: Biacore T200, pH 7.4, 1.2 mM Ca, steady state affinity. The method, then: as §1, §2
Experiment [9] addresses T1, recombinant human IgA. The experiment in a line: Biacore T200, pH 7.4, 3 µM Ca, steady state affinity. The method, then:
as §1, §2

The target in experiment [10] is T1, recombinant human IgA. The experiment can be described thus: Biacore T200, pH 5.8, 3 µM Ca, steady state affinity. The method, then:
as §1, §2

Another experiment concerns the target T2, human interleukin 6 (human, UniProt P05231 30-212, limits assumed).
T2 construct: also called hIL6; IL-6
The experiment in a line: Biacore T100, antibody captured by Protein A/G, pH 7.4, 37 C. Here is the method:
Using Biacore T100 (GE Healthcare), the prepared antibodies were assessed for their binding activity (dissociation constant KD (M)) to human interleukin 6 (hIL6) at pH 7.4. The measurement was carried out using as a running buffer 0.05% Tween20, 10 mmol/1 ACES, 150 mmol/l NaCl (pH 7.4) containing 3 μM or 1.2 mM CaCl₂.
After an adequate amount of recombinant Protein A/G (Thermo Scientific) was immobilized onto Sensor chip CM5 (GE Healthcare) by an amino coupling method, antibodies were allowed to bind thereto. An appropriate concentration of hIL6 (human interleukin 6; Kamakura Techno-Science, Inc.) was injected as an analyte to interact with antibodies on the sensor chip. Then, the sensor chip was regenerated by injecting 10 mmol/1 glycine-HCl (pH 1.5). The measurement was carried out at 37° C.

The target in experiment [11] is T3, recombinant human glypican 3 (human, UniProt P51654 25-563, biotin-labeled in the ELISA).
T3 construct: Six histidine residues are linked; also called GPC3; human GPC3
The experiment in a line: ELISA on biotin-labeled GPC3. Here is the method: The plate was incubated at 37° C. for 30 minutes. […] The plate was incubated for one hour.

In experiment [12] the target is T4, soluble human IL-6 receptor (human, UniProt P08887 20-357).
T4 construct: also called hsIL-6R; hIL6R
T4 sequence: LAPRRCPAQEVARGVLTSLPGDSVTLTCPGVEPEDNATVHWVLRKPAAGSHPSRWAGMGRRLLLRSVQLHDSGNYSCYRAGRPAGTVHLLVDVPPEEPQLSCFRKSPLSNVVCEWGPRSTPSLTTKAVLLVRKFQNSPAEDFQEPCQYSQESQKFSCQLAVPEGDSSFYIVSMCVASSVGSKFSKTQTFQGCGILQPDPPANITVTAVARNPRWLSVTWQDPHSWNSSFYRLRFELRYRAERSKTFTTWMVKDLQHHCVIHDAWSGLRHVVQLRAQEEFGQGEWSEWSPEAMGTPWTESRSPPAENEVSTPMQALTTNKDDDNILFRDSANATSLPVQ
The experiment in a line: Biacore T100, antibody captured by Protein A, 37 C.

Experiment [13] deals with T4, soluble human IL-6 receptor. The experiment can be described thus: Biacore T100.

T2 sequence (P05231 30-212 limits assumed): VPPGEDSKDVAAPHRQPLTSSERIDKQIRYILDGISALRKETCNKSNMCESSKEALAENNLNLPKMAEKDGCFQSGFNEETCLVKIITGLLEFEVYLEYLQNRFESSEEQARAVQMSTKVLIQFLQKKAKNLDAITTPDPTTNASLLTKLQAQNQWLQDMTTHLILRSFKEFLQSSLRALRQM
T1 sequence (heavy, as listed by the source): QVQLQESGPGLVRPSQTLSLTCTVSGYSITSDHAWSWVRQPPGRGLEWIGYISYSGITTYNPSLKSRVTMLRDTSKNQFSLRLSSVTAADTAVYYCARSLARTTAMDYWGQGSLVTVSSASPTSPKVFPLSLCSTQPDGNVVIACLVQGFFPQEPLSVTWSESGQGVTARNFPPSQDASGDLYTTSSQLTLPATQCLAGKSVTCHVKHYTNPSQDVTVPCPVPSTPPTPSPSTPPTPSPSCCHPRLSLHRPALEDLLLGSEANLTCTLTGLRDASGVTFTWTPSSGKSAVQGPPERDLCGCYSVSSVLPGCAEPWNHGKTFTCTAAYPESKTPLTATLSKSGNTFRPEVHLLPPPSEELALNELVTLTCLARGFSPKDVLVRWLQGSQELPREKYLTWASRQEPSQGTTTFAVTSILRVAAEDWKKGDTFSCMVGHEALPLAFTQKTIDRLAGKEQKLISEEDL

B1: GA1-IgG1 (antibody, V domains shown)
VH: EVQLVQSGAEVKKPGSSVKVSCKASGGTFSSYAISWVRQAPGQGLEWMGGIIPIFGTANYAQKFQGRVTITADESTSTAYMELSSLRSEDTAVYYCARVAPGNWGSPYFDYWGQGTLVTVSS
VL: DIQMTQSPSSLSASVGDRVTITCRASQSIEDDLAWYQQKPGKAPKLLIYEASSLQSGVPSRFSGSGSGTDFTLTISSLQPEDFATYYCQQRDSSPLTFGQGTKVEIKR
notes: also called GAI-IgG1
In the case of B1, the dissociation constant Kd worked out at 150 nM with recombinant human IgA [1]; 140 nM with recombinant human IgA [2]; 190 nM with recombinant human IgA [3]; 150 nM with recombinant human IgA [4]; 100 nM in the experiment with recombinant human IgA [5]; 220 nM in the experiment with recombinant human IgA [6]. Besides, the koff was 0.084 s⁻¹ in the experiment with recombinant human IgA [1]; 0.099 s⁻¹ in the experiment with recombinant human IgA [2]; 0.12 s⁻¹ in the experiment with recombinant human IgA [3]; 0.11 s⁻¹ with recombinant human IgA [4]; 0.12 s⁻¹ in the experiment with recombinant human IgA [5]; 0.24 s⁻¹ with recombinant human IgA [6]. Also, the kon stood at 570000 M⁻¹ s⁻¹ with recombinant human IgA [1]; 680000 M⁻¹ s⁻¹ in the experiment with recombinant human IgA [2]; 640000 M⁻¹ s⁻¹ with recombinant human IgA [3]; 710000 M⁻¹ s⁻¹ with recombinant human IgA [4]; 1.2e+06 M⁻¹ s⁻¹ with recombinant human IgA [5]; 1.1e+06 M⁻¹ s⁻¹ with recombinant human IgA [6].

B2: GA4-IgG1 (antibody, V domains shown)
VH: QVQLQQSGPGLVKPSETLSLTCTILGGSISGHYWSWIRQTPGKGLEWIGYIDYSGSTHYNPSLKSRVTMSVDTSKNQFSLKLSSVTAADTAMYYCARDNWDFGSGSYYNWFDPWGQGTLVTVSS
VL: B1 VL with E50H, R91S, S93N
In the case of B2, the Kd is 1100 nM with recombinant human IgA [7], 420 nM with recombinant human IgA [8], 890 nM with recombinant human IgA [9] and 1500 nM with recombinant human IgA [10].

B3: GA2-IgG1 (antibody, V domains shown)
VH: QVQLVQSGAEVKKPGSSVKVSCKASGGTFSSYAISWVRQAPGQGLEWMGGIIPIFGTANYAQKFQGRVTITADESTSTAYMELSSLRSEDTAVYYCARPRWETAISSDAFDIWGQGTMVTVSS
VL: B1 VL with E30S, A34N, S53N, R91H, D92S
In the case of B3, the koff with recombinant human IgA [1] amounted to 0.016 s⁻¹.

B4: GA3-IgG1 (antibody, V domains shown)
VH: QVQLVQSGAEVKKPGSSVKVSCKASGGTFSSYAISWVRQAPGQGLEWMGGIIPIFGTANYAQKFQGRVTITADESTSTAYMELSSLRSEDTAVYYCARGNGDYLEYFQHWGQGTLVTVSS
VL: B1 VL with E30S, S53N
In the case of B4, in the experiment with recombinant human IgA [1], the dissociation constant (Kd) came out at 79 nM, the koff was found to be 0.033 s⁻¹ and the kon is 430000 M⁻¹ s⁻¹. Also, in the experiment with recombinant human IgA [2], the Kd was 81 nM, the koff was found to be 0.035 s⁻¹ and the kon stood at 440000 M⁻¹ s⁻¹. The Kd with recombinant human IgA [10] came to 1100 nM.

B5: 6LC4-2#16-IgG1 (antibody, V domains shown)
VH: QVQLQQSGPGLVKPSQTLSLTCAISGDSVSSNSAAWNWIRQSPSRGLEWLGRTYYRSKWYNDYAVSVKSRITINPDTSKNQFSLQLNSVTPEDTAVYYCARDLIAAAGGDFDYWGQGTLVTVSS
VL: QSVLTQPPSVSGAPGQRVTISCTGSRSNIGAGFDVHWYRQLPGTAPKLLIYGISNRPSGVPDRFSGSKSDTSVSLAITGLQAEDEADYYCQSYDSSLSGYVFGTGTKVTVLG
As for B5, in the experiment with human interleukin 6, the binding result is on record as “binds”.

B6: 6KC4-1#85-IgG1 (antibody, V domains shown)
VH: EVQLVESGGGLVQPGGSLRLSCAASGFTFSSYEMNWVRQAPGKGLEWVSYISSSGSTIYYADSVKGRFTISRDNAKNSLYLQMNSLRAEDTAVYYCARDAPYYYDSSGYTDAFDIWGQGTMVTVSS
VL: EIVLTQSPATLSLSPGERATLSCRASQSVSSYLAWYQQKPGQAPRLLIFDASNRAAGIPARFSGSGSGTDFTLTISSLEPEDFAVYYCQQFDKWVTFGGGTTVEIRR
On to B6, for which, in the experiment with human interleukin 6, the binding result was “binds”.

B7: GC-IgG1 (antibody, V domains shown)
VH: QVQLVQSGAEVKKPGASVKVSCKASGYTFTDYEMHWVRQAPGQGLEWMGALDPKTGDTAYSQKFKGRVTLTADKSTSTAYMELSSLTSEDTAVYYCTRFYSYTYWGQGTLVTVSS
VL: DVVMTQSPLSLPVTPGEPASISCRSSQSLVHSNRNTYLHWYLQKPGQSPQLLIYKVSNRFSGVPDRFSGSGSGTDFTLKISRVEAEDVGVYYCSQNTHVPPTFGQGTKLEIKR
As to B7, the binding result in [11] is “binds”.

B8: 6RK#12-IgG1 (antibody, V domains shown)
VH: QVQLVQSGAEVKKPGSSVKVSCKASGGTFSSYAISWVRQAPGQGLEWMGGIIPIFGTANYAQKFQGRVTITADESTSTAYMELSSLRSEDTAVYYCARDLGDIVVVPAAPDMPKGYYYYGMDVWGQGTMVTVSS
VL: EIVMTQSPATLSVSPGERATLSCRASQSINDNLAWYQQKPGQAPRLLIYGASTRATGIPARFSGSGSGTEFTLTISSLQSEDFAVYFCQQYQYWPPITFGQGTRLDIKR
For the molecule B8, the binding result in experiment [12] is listed as “binds”.

B9: 6RL#9-IgG1 (antibody, V domains shown)
VH: QVQLVQSGAEVKKPGASVKVSCKASGYTFTSYYMHWVRQAPGQGLEWMGIINPSGGSTSYAQKFQGRVTMTRDTSTSTVYMELSSLRSEDTAVYYCARDDPGGGEYYFDYWGQGTLVTVSS
VL: QSVLTQPPSVSGAPGQRVTISCTGSRSNMGAGYDVHWYQLLPGAAPKLLISHNTHRPSGVPDRFSGSKSGASASLAITGLQAEDEADYYCQSHDSSLSAVVFGGGTKLTVLS
Take B9: the “Ca … (KD at 3 µM CaCl2 against KD at 2 mM CaCl2)” value in experiment [13] is ≥ 120 fold.

B10: FH4-IgG1 (antibody, V domains shown)
VH: QVQLVQSGAEVKKPGSSVKVSCKASGGTFSSYAISWVRQAPGQGLEWMGGIIPIFGTANYAQKFQGRVTITADESTSTAYMELSSLRSEDTAVYYCARERDYYDSSGYYDAFDIWGQGTMVTVSS
VL: ETTVTQSPSFLSASVGDRVTITCITTTDIDDDMNWFQQEPGKAPKLLISEGNILRPGVPSRFSSSGYGTDFTLTISKLQPEDFATYYCLQSDNLPFTFGQGTKLEIKR
Turning to B10, the “Ca … (KD at 3 µM CaCl2 against KD at 2 mM CaCl2)” value in [13] is ≥ 60 fold.

B11: 6LC4-1#15-IgG1 (antibody, V domains shown)
VH: QVQLVQSGAEVKKPGATVKISCKVSGYTFTDYYMHWVQQAPGKGLEWMGLVDPEDGETIYAEKFQGRVTITADTSTDTAYMELSSLRSEDTAVYYCATAGSSSNFDYWGQGTLVTVSS
VL: QSALTQPRSVSGSPGQSVTISCTGTSSDVGGYNYVSWYQQHPGKAPKLMIYDVSKRPSGVPDRFSGSKSGNTASLTISGLQAEDEADYYCCSYAGSYTWVFGGGTKLTVLG
B11: the binding result in the experiment with human interleukin 6 is reported as “binds”.

The Kd is the concentration at which binding is half-saturated. As a reminder, the koff is the rate constant with which the complex falls apart. By kon is commonly meant a measure of how fast the partners come together.
